Here are results for 6 molecules from paper PMC9784857, “In Vitro Characterization of a Nuclear Receptor-like Domain of the Xylanase Regulator 1 from Trichoderma reesei” (Journal of Fungi, 2022).

Series [1] concerns the target T1, Xyr1 (Xylanase regulator 1) (Trichoderma reesei, UniProt G0RLE8).
T1 construct: full coding region, codon-optimised synthetic gene, C-terminal His6 tag (not reported cut), pET28a (pTS1), E. coli BL21(DE3)pLysS; 105 kDa; monomer and homodimer
In words: far-UV circular dichroism, ligand-induced conformational change. Type of series: binding. The note with it: 250 nM protein, buffer A (50 mM Tris, 200 mM NaCl, 50 mM NaH2PO4, 10% glycerol) pH 7.5, 22 °C; sugar 40-1000 nM; no added DNA; proposed allosteric. The text has this:
far-UV circular dichroism, ligand-induced conformational change on Xyr1 (Xylanase regulator 1) | All three carbohydrates cause a change in the Xyr1 secondary structure
Background: Circular dichroism is widely used to follow secondary structure.

The target of series [2] is Xylanase regulator 1 with the A824V mutation (Xyr1_(A824V)) (Trichoderma reesei) (UniProt G0RLE8). In words: native gel or EMSA; blue native PAGE (BN-PAGE), 200 nM of each protein, non-denaturing conditions; second dimension SDS-PAGE, identity confirmed by Western blot; also run with target DNA or carbohydrates as controls (Figure S1). For orientation: A gel shift assay detects complexes by their altered migration in electrophoresis.

In series [3] the target is T1, Xyr1 (Xylanase regulator 1). Briefly: far-UV circular dichroism, ligand-induced conformational change. Type of series: binding. The note with it: 250 nM protein, buffer A (50 mM Tris, 200 mM NaCl, 50 mM NaH2PO4, 10% glycerol) pH 7.5, 22 °C, sugar 40-1000 nM, no added DNA, proposed allosteric.
The target in the next series is T2, Xyr1A824V (Trichoderma reesei, UniProt G0RLE8 1-920, A804V).
T2 sequence: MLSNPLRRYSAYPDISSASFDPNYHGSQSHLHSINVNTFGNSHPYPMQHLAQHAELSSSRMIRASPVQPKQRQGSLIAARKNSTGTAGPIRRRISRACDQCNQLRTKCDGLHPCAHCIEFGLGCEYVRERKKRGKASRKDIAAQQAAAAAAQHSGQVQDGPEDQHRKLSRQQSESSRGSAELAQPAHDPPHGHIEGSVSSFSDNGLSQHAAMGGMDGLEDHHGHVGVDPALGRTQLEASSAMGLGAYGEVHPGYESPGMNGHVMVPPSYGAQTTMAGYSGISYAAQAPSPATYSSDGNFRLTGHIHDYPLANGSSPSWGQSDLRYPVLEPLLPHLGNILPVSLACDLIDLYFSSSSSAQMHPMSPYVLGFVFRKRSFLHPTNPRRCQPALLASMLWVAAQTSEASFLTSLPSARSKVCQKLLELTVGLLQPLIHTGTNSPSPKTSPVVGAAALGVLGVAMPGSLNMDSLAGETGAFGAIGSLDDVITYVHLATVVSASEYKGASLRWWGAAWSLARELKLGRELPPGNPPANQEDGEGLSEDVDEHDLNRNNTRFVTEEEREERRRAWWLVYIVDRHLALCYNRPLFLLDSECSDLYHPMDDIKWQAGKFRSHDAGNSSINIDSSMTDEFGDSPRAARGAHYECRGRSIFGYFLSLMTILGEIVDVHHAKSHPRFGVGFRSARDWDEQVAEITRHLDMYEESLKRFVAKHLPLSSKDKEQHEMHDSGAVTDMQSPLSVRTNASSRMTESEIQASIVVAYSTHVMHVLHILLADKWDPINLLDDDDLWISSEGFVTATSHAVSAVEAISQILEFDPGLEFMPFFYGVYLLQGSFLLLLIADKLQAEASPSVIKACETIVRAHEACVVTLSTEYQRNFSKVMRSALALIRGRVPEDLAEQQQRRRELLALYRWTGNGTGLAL
Briefly: CD spectroscopy titration (222 nm); no carbohydrate; Engel fit, n = 2; Buffer A: 50 mM Tris, 200 mM NaCl, 50 mM NaH2PO4, 10% glycerol, pH 7.5, 22 °C; CD: 250 nM protein, DNA 0-900 nM; EMSA: 15 ng probe, 10 min, 0.2 µg/µL p(dIdC) plus unspecific duplex CKT067/CKT068. The note with it: protein: recombinant; tags: C-terminal His6; chain copies: 2; blunt.

The target in series [4] is T3, Xyr1 (Xylanase regulator 1) (Trichoderma reesei, UniProt G0RLE8 1-920).
T3 sequence: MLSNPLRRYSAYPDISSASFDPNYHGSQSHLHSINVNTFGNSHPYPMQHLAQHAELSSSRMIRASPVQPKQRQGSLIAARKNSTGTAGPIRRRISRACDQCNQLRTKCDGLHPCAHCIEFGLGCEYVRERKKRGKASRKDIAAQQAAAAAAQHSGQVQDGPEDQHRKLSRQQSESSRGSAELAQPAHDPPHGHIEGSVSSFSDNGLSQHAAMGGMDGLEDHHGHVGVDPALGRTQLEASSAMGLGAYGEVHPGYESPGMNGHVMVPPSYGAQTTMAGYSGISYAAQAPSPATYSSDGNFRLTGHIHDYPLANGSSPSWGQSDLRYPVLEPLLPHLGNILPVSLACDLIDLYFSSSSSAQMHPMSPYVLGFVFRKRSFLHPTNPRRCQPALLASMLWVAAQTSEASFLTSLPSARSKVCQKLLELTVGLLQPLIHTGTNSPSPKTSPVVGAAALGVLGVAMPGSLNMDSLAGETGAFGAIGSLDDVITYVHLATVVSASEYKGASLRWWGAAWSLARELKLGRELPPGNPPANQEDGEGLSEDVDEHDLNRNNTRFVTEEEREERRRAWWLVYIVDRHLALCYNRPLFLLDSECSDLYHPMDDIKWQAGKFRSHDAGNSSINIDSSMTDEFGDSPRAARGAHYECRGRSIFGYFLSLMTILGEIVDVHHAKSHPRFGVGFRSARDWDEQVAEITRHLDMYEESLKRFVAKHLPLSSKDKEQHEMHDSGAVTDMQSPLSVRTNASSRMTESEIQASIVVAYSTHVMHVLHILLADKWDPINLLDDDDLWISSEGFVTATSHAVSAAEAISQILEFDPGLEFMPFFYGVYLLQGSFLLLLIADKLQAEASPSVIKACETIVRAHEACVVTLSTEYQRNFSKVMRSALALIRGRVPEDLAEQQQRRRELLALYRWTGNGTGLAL
The series is described as above. Conditions: protein: recombinant; tags: C-terminal His6; chain copies: 2; blunt.

Series [5] deals with the molecule itself. In words: native gel or EMSA; blue native PAGE (BN-PAGE), 200 nM of each protein, non-denaturing conditions; second dimension SDS-PAGE, identity confirmed by Western blot; also run with target DNA or carbohydrates as controls (Figure S1).

As to `O=P(O)(O)OC[C@H]1OC(O)[C@H](O)[C@@H](O)[C@@H]1O` (stereo partly drawn) [D-glucose-6-phosphate], in series [1], the “loss of α-helix structures” value came to 21%.

The molecule “Xylanase regulator 1 with the A824V mutation (Xyr1_(A824V)) (from UniProt G0RLE8 1-920)” showed a stoichiometry N in series [2] of 2.

For `OC1OC[C@@H](O)[C@H](O)[C@H]1O` (stereo partly drawn) [D-xylose], in series [3], the “loss of α-helix structures (up to)” value came out at 31%.

For the molecule `OC[C@H]1O[C@@H](O[C@H]2C(O)O[C@H](CO)[C@@H](O)[C@@H]2O)[C@H](O)[C@@H](O)[C@@H]1O` (stereo partly shown) [sophorose], in series [3] (spectra not shown, stated highly similar to D-xylose), the “loss of α-helix structures (up to)” value is 31%.

B1: xyn1 URR fragment (-430 to -396), Pxyn1f/Pxyn1r (dsDNA)
DNA 1: TTGGCAGGCTAAATGCGACATCTTAGCCGGATGCA
DNA 2: TGCATCCGGCTAAGATGTCGCATTTAGCCTGCCAA
Consider B1, for which the figures for the Kd (in the series with Xyr1A824V; in series [4]) were 523 nM and 128 nM, respectively.

B2: Xylanase regulator 1 (Xyr1), wild type (natural protein)
chain: MLSNPLRRYSAYPDISSASFDPNYHGSQSHLHSINVNTFGNSHPYPMQHLAQHAELSSSRMIRASPVQPKQRQGSLIAARKNSTGTAGPIRRRISRACDQCNQLRTKCDGLHPCAHCIEFGLGCEYVRERKKRGKASRKDIAAQQAAAAAAQHSGQVQDGPEDQHRKLSRQQSESSRGSAELAQPAHDPPHGHIEGSVSSFSDNGLSQHAAMGGMDGLEDHHGHVGVDPALGRTQLEASSAMGLGAYGEVHPGYESPGMNGHVMVPPSYGAQTTMAGYSGISYAAQAPSPATYSSDGNFRLTGHIHDYPLANGSSPSWGQSDLRYPVLEPLLPHLGNILPVSLACDLIDLYFSSSSSAQMHPMSPYVLGFVFRKRSFLHPTNPRRCQPALLASMLWVAAQTSEASFLTSLPSARSKVCQKLLELTVGLLQPLIHTGTNSPSPKTSPVVGAAALGVLGVAMPGSLNMDSLAGETGAFGAIGSLDDVITYVHLATVVSASEYKGASLRWWGAAWSLARELKLGRELPPGNPPANQEDGEGLSEDVDEHDLNRNNTRFVTEEEREERRRAWWLVYIVDRHLALCYNRPLFLLDSECSDLYHPMDDIKWQAGKFRSHDAGNSSINIDSSMTDEFGDSPRAARGAHYECRGRSIFGYFLSLMTILGEIVDVHHAKSHPRFGVGFRSARDWDEQVAEITRHLDMYEESLKRFVAKHLPLSSKDKEQHEMHDSGAVTDMQSPLSVRTNASSRMTESEIQASIVVAYSTHVMHVLHILLADKWDPINLLDDDDLWISSEGFVTATSHAVSAAEAISQILEFDPGLEFMPFFYGVYLLQGSFLLLLIADKLQAEASPSVIKACETIVRAHEACVVTLSTEYQRNFSKVMRSALALIRGRVPEDLAEQQQRRRELLALYRWTGNGTGLAL
Turning to B2, in series [5], the “stoichiometry N” value was 2.

By stoichiometry N is commonly meant the number of molecules, sites or subunits per partner or assembly. Usually Kd stands for the constant that tells how readily two partners part at equilibrium.
